Experimental data as given in patent publication US8304206.
Where “and” joins values, the source holds several entries; their conditions need not be identical. Equal entries are not always repeated.

Target: T1, SIRT1 Acetylated Peptide Substrate Ac-EE-K(biotin)-GQSTSSHSK(Ac)NleSTEG-K(5TMR)-EE-NH2 (SEQ ID NO: 34)
T1 chain: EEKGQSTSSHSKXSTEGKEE

B1: SIRT1 protein (human SIRT1 enzyme), expressed in E. coli BL21(DE3) as an N-terminal His-tag fusion protein (protein)
chain: MADEAALALQPGGSPSAAGADREAASSPAGEPLRKRPRRDGPGLERSPGEPGGAAPEREVPAAARGCPGAAAAALWREAEAEAAAAGGEQEAQATAAAGEGDNGPGLQGPSREPPLADNLYDEDDDDEGEEEEEAAAAAIGYRDNLLFGDEIITNGFHSCESDEEDRASHASSSDWTPRPRIGPYTFVQQHLMIGTDPRTILKDLLPETIPPPELDDMTLWQIVINILSEPPKRKKRKDINTIEDAVKLLQECKKIIVLTGAGVSVSCGIPDFRSRDGIYARLAVDFPDLPDPQAMFDIEYFRKDPRPFFKFAKEIYPGQFQPSLCHKFIALSDKEGKLLRNYTQNIDTLEQVAGIQRIIQCHGSFATASCLICKYKVDCEAVRGDIFNQVVPRCPRCPADEPLAIMKPEIVFFGENLPEQFHRAMKYDKDEVDLLIVIGSSLKVRPVALIPSSIPHEVPQILINREPLPHLHFDVELLGDCDVIINELCHRLGGEYAKLCCNPVKLSEITEKPPRTQKELAYLSELPPTPLHVSEDSSSPERTSPPDSSVIVTLLDQAAKSNDDLDVSESKGCMEEKPQEVQTSRNVESIAEQMENPDLKNVGSSTGEKNERTSVAGTVRKCWPNRVAKEQISRRLDGNQYLFLPPNRYIFHGAEVYSDSEDDVLSSSSCGSNSDSGTCQSPSLEEPMEDESEIEEFYNGLEDEPDVPERAGGAGFGTDGDDQEAINEAISVKQEVTDMNYPSNKS
Km (mass spectrometry deacetylase assay, replicate plate): 11.2 µM and 11.9 µM
Peptide Km (mean of 2 replicate plates, mass spectrometry assay): 11.6 µM
deacetylation of the peptide (conversion to deacetylated product, mass spectrometry): SIRT1 deacetylation activity is dependent on both enzyme concentration and incubation time. Concentrations of enzyme between 5-20 nM result in product formation well above background.
decrease of Km for peptide substrate at 1.2 µM resveratrol (against DMSO vehicle): 2%
decrease of Km for peptide substrate at 3.7 µM resveratrol (against DMSO vehicle): 14%
decrease of Km for peptide substrate at 11 µM resveratrol (against DMSO vehicle): 14%
decrease of Km for peptide substrate at 33 µM resveratrol (against DMSO vehicle): 32%
decrease of Km for peptide substrate at 100 µM resveratrol (against DMSO vehicle): 46%
